Changes are numbered by the printed parent chain. Numbers in names are those of the source. One block for each binder: values may come before it.
What was measured:
hTIM-3.ECD.MBPHis = biological target: T1, hTIM-3.ECD.MBPHis (human, UniProt Q8TDQ0 22-202); assay: SPR Biacore 8K, antibody captured on anti-human IgG Fc CM5 chip, hTIM-3.ECD.MBPHis as analyte, 1:1 fit
T1 construct: extracellular domain; Made in Expi293 cells; also called human TIM-3.ECD.MBPAVIHIS; not shown: C-terminal MBP / AVI / 6xHis tag

CynoTIM-3.ECD.Fc = biological target: T2, CynoTIM-3.ECD.Fc (cynomolgus monkey, UniProt A0A2K5U3G7 22-195); assay: SPR Biacore 8K, cynoTIM-3.ECD.Fc immobilised on CM5 chip, antibody as analyte (avidity), 1:1 fit
T2 construct: extracellular domain; also called Cynomolgus TIM-3, hFc tag; not shown: Fc tag
T2 sequence: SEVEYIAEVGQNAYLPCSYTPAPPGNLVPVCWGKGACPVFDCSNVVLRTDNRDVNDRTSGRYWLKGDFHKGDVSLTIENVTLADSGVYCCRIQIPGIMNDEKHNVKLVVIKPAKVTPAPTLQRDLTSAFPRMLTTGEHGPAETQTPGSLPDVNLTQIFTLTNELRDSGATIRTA

[1] = biological target: human TIM-3 protein (coated on ELISA plates) (human, UniProt Q8TDQ0 22-200, limits assumed); assay: competition ELISA on plate-coated human TIM-3 against biotinylated WBP340-BMK8, detection with SA-HRP
[2] = biological target: T3, human TIM-3, full length, on cells (human, UniProt Q8TDQ0 22-301); assay: FACS on PHA-activated human CD4+ T cells (natural TIM-3), detection with PE goat anti-human IgG Fc, MFI
T3 construct: whole, on cells; also called hTIM-3; cell surface human TIM-3

Human TIM-4, His tag = biological target: T4, Human TIM-4, His tag (human, UniProt Q96H15 25-315, limits assumed); assay: ELISA, plates coated with human TIM-4
T4 construct: Bought protein
T4 sequence (looked up): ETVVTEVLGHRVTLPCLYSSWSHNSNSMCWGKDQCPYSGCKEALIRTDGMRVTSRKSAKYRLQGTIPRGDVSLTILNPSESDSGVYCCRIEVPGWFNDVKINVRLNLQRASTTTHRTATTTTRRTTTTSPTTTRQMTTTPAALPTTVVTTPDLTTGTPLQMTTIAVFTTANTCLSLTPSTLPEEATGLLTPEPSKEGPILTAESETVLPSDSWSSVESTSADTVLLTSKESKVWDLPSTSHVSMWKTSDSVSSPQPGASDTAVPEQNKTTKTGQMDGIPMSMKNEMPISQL

[3] = biological target: T3, human TIM-3, full length, on cells; assay: FACS binding titration on human TIM-3 transfected cells after incubation of the antibody in human serum
[4] = biological target: T3, human TIM-3, full length, on cells; assay: flow cytometry on hTIM-3-expressing transfectant cells, PE goat anti-human IgG-Fc
mFc-tagged human TIM-3 = biological target: T5, mFc-tagged human TIM-3 (human, UniProt Q8TDQ0 22-202, limits assumed); assay: competition, flow cytometry: antibody pre-mixed with mFc-tagged human TIM-3, binding of TIM-3 to PtdSer on apoptotic Jurkat cells, PE anti-mouse IgG Fc; blockade of TIM-3 binding to PtdSer on apoptotic Jurkat cells
T5 construct: the assay text only says mFc-tagged human TIM-3; also called hTIM-3.ECD.mFc; not shown: mouse Fc tag at the C-terminus

Human TIM-1, His tag = biological target: T6, Human TIM-1, His tag (human, UniProt Q96D42 21-293, limits assumed); assay: ELISA, plates coated with human TIM-1
T6 construct: Bought protein
T6 sequence (looked up): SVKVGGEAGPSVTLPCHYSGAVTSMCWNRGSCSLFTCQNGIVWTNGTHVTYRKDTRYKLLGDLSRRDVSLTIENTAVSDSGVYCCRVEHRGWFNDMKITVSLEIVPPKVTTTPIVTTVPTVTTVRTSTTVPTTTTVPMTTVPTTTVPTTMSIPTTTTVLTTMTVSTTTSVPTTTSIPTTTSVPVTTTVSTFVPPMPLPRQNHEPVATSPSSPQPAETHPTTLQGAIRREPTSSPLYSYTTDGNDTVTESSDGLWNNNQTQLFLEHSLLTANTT

[5] = biological target: T7, cynomolgus monkey TIM-3, full length, on transfected cells (cynomolgus monkey, UniProt A0A2K5U3G7 22-294); assay: flow cytometry on cynoTIM-3-expressing transfectant cells, PE goat anti-human IgG-Fc
T7 construct: whole, on cells; cynoTIM-3-expressing transfectant cells; also called cynoTIM-3
T7 sequence: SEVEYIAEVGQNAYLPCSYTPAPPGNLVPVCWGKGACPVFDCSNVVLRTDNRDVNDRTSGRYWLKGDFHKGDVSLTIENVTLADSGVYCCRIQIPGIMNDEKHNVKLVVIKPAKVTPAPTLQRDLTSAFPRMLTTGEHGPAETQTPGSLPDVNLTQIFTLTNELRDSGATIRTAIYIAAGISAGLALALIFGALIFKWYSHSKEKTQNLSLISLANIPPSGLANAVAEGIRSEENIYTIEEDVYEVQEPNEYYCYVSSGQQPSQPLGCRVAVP

- Kd (hTIM-3.ECD.MBPHis): 0.153 nM
- koff (hTIM-3.ECD.MBPHis): 3.18e-05 s⁻¹
- kon (hTIM-3.ECD.MBPHis): 208000 M⁻¹ s⁻¹
- Kd (CynoTIM-3.ECD.Fc): 0.00452 nM
- koff (CynoTIM-3.ECD.Fc): 7.49e-06 s⁻¹
- kon (CynoTIM-3.ECD.Fc): 1.66e+06 M⁻¹ s⁻¹
B1: W3405-2.61.21-uAb-hIgG4.SPK (V87E) (antibody, V domains shown)
VH: EVQLLEAGGGPVQPGGSLRLSCAAAGFTFSNYAMSWVRQAPGKGLEWVSSISDNGGTAYHADSVQGRFTISRDNSKSTLYLQMNSLRAEDTAVYYCAKDFGDSPGYWGQGTLVTVSS
VL: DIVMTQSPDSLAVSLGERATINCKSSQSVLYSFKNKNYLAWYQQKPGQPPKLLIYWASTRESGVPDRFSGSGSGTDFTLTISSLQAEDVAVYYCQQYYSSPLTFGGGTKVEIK
notes: Human IgG4 (S228P) heavy constant region and kappa light chain; also called mutant_3

- Kd (hTIM-3.ECD.MBPHis): 0.138 nM
- koff (hTIM-3.ECD.MBPHis): 3.2e-05 s⁻¹
- kon (hTIM-3.ECD.MBPHis): 232000 M⁻¹ s⁻¹
- IC50 (read off the curve) [1]: ~0.8 nM
- EC50 [2]: 0.096 nM
- binding result (Human TIM-4, His tag): no binding
- EC50 (read off the curve) [3]: ~0.4 nM
- EC50 [4]: 0.13 nM
- IC50 (mFc-tagged human TIM-3): 20 nM
- Kd (CynoTIM-3.ECD.Fc): 0.006 nM
- koff (CynoTIM-3.ECD.Fc): 1.73e-05 s⁻¹
- kon (CynoTIM-3.ECD.Fc): 2.89e+06 M⁻¹ s⁻¹
- binding result (Human TIM-1, His tag): no binding
- EC50 [5]: 0.99 nM
B2: W3405-2.61.21-uAb-p1-hIgG4.SPK (antibody, V domains shown)
VH: B1 VH with N54Q
VL: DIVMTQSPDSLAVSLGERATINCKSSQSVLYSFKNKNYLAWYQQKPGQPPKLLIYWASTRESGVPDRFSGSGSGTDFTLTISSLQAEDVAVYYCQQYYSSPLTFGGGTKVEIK
notes: Fully human antibody; Constant region of human IgG4 (S228P) heavy chain and human kappa light chain; also called W3405 lead antibody; p1 variant (N→Q)
